What was measured:
[1] = system: recombinant wild type galectin-3 phosphorylated in vitro by c-Abl (galectin-3 Tyr(P)-107), His-tagged
[2] = system: recombinant wild type full-length human galectin-3, His-tagged (unphosphorylated)
[3] = system: galectin-3 secreted by PC3M cells after EGF (and PDGF) treatment, tyrosine phosphorylated (galectin-3 Tyr(P)-107)
galectin-3 secreted by PC3M cells after EGF (and PDGF) treatment, tyrosine phosphorylated (galectin-3 Tyr(P)-107), sequence (chain, as listed by the source): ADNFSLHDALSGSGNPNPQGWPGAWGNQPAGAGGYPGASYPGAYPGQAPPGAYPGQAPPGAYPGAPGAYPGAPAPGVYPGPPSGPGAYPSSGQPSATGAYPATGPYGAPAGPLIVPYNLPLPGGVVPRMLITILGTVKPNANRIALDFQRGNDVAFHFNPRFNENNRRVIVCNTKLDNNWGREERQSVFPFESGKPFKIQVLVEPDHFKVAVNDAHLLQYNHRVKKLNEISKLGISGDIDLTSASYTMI

recombinant wild type galectin-3 phosphorylated in vitro by c-Abl (galectin-3 Tyr(P)-107), His-tagged, sequence (chain, as listed by the source): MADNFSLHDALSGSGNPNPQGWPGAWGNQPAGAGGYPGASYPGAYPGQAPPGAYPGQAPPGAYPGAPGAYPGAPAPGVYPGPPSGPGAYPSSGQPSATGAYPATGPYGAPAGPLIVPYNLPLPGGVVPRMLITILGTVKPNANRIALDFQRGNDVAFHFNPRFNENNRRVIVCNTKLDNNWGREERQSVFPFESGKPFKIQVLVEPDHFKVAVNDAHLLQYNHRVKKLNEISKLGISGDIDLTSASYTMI

active prostate specific antigen (PSA)
cleavage of galectin-3 by PSA (2 h at room temperature, Western blot with anti-galectin-3 and anti-Tyr(P) antibodies) [1]: phosphorylation of Tyr-107 blocks the cleavage of galectin-3 by PSA | cleavage of galectin-3 by PSA (2 h at room temperature, Western blot with anti-galectin-3 antibody) [2]: FIG. 1A demonstrated that phosphorylation of Tyr-107 blocks the cleavage of galectin-3 by PSA

endogenous PSA secreted by LNCaP cells
cleavage of secreted galectin-3 in conditioned medium of LNCaP/PC3M co-culture with and without EGF (Western blot with HL31) [3]: phosphorylation blocks cleavage of galectin-3 in conditioned medium

phosphatase and tensin homolog (PTEN)
dephosphorylation of galectin-3 Tyr(P)-107 (PTEN for 2 hr at 30 C, pTyr and Gal-3 blots) [1]: This was then proven by phosphorylating galectin-3 in vitro with active c-Abl and then treating it with PTEN
